The results in this text go back to patent publication US20170306015A1 (DEUTSCHES KREBSFORSCHUNGSZENTRUM STIFTUNG DES FFENTLICHEN …, published 2017).

The target in this experiment is T1, L1-Fc (human L1-Fc protein comprising the ectodomain of L1) (human, UniProt P32004 20-1120).
T1 construct: extracellular domain; also called L1CAM; CD171; not shown: Fc part
The experiment in a line: SPR, BIAcore 3000, L1-Fc immobilised on CM5 chip, antibody injected. Here is the method: Affinity to L1 may be determined by methods known in the art, as for example by surface plasmon resonance. The binding analysis for L1-OV52.24 was performed using a BIAcore 3000 equipped with a CM5 sensor chip. Briefly, a BIAcore CM5 chip was activated with EDC/NHS and various levels of L1-Fc were captured onto the activated surface. The remaining active sites were blocked by ethanolamine/HCl. L1-OV52.24 was bound to the L1-Fc surface and allowed to dissociate over time. The association and dissociation phases for each injection over each density surface were subjected to kinetic analysis.
The binding analysis was performed using a BIAcore 3000 equipped with a CM5 sensor chip. Briefly, a BIAcore CM5 chip was activated with EDC/NHS and various levels of L1-Fc were captured onto the activated surface. The remaining active sites were blocked by ethanolamine/HCl. L1-mAb were bound to the L1-Fc surface and allowed to dissociate over time. The association and dissociation phases for each injection over each density surface were subjected to kinetic analysis.
(In general: Surface plasmon resonance follows binding to a sensor surface in real time, without labels.)

T1 sequence (P32004 20-1120): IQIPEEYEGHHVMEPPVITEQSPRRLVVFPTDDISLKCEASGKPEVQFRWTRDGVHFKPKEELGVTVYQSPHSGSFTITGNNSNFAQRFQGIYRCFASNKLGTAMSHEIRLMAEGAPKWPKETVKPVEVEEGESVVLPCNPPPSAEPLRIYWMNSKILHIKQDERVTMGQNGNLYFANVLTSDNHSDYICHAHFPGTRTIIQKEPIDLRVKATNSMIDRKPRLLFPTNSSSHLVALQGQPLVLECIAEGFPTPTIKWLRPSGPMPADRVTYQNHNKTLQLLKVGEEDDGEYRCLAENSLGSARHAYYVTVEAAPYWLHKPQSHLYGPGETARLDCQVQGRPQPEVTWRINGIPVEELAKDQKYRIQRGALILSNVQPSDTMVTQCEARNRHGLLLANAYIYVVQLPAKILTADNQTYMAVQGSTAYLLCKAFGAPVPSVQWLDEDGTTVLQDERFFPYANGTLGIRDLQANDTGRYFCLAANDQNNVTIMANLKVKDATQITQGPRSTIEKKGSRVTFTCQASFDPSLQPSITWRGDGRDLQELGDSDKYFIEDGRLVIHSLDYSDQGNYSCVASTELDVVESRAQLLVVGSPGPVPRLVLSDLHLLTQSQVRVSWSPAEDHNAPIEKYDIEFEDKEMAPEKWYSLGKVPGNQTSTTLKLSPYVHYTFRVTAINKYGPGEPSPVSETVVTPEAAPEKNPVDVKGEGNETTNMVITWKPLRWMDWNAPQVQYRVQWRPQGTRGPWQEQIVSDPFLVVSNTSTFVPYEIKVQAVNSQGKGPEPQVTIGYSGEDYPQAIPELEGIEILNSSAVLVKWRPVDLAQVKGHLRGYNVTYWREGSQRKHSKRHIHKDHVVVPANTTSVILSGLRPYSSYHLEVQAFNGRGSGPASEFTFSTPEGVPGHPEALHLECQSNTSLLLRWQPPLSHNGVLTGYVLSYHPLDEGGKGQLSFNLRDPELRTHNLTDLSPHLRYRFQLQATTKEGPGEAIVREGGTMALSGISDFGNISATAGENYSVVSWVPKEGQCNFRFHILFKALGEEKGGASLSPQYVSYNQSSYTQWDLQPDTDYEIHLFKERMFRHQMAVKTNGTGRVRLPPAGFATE

B1: monoclonal antibody L1-OV52.24 (antibody, IgG1, V domains shown)
VH: EVQLQQSGAELVRPGALVKLSCKASGFNIKDYYMQWVKQRPEQGLEWIGWIDPENGKTVFDPKFRGKASISADTSSNTAYLQLSSLTSEDTAVYYCARWNPLAFWGQGTLVTVSS
VL: DIVMTQSQKFMSTSVGDRVSVTCKASQNVGTNVAWYQQKPGHSPKALIYSTSYRYSGVPDRFTGSGSGTDFTLTIRNVQSEDLAEYFCQQYNTYPYTFGGGTKLEIK
notes: also called mAb L1-OV52.24; L1CAM mAb OV52.24
As usually defined, the Kd is the concentration at which binding is half-saturated. A lower Kd goes with a tighter complex. B1: the Kd amounted to 2.41 nM.
